In IntAct's records for PubMed 23933751:

B1: F-box only protein 7 (Homo sapiens), Q9Y3I1 (parent)
chain: MRLRVRLLKRTWPLEVPETEPTLGHLRSHLRQSLLCTWGYSSNTRFTITLNYKDPLTGDEETLASYGIVSGDLICLILQDDIPAPNIPSSTDSEHSSLQNNEQPSLATSSNQTSMQDEQPSDSFQGQAAQSGVWNDDSMLGPSQNFEAESIQDNAHMAEGTGFYPSEPMLCSESVEGQVPHSLETLYQSADCSDANDALIVLIHLLMLESGYIPQGTEAKALSMPEKWKLSGVYKLQYMHPLCEGSSATLTCVPLGNLIVVNATLKINNEIRSVKRLQLLPESFICKEKLGENVANIYKDLQKLSRLFKDQLVYPLLAFTRQALNLPDVFGLVVLPLELKLRIFRLLDVRSVLSLSAVCRDLFTASNDPLLWRFLYLRDFRDNTVRVQDTDWKELYRKRHIQRKESPKGRFVMLLPSSTHTIPFYPNPLHPRPFPSSRLPPGIIGGEYDQRPTLPYVGDPISSLIPGPGETPSQFPPLRPRFDPVGPLPGPNPILPGRGGPNDRFPFRPSRGRPTDGRLSFM

Variants of: B1
Settings: with prkn_human PRKN

| effect of a mutation on the interaction | Variant |
| --- | --- |
| disrupting interaction | T22M |
